# Assay results taken from the nanobody polyreactivity screen of Harvey et al. (2022).
# Test: yeast display, Sf9 membrane polyspecificity reagent, FACS + sequencing; frameworks hold sequencing errors
# How it was run: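 Galactose induction of a Saccharomyces cerevisiae BJ5465 synthetic nanobody display library ran 36–48 hours. The cells were then stained for 1 hour at 4 °C with 10% biotinylated, detergent-solubilized Sf9 membrane reagent, pulled down on streptavidin microbeads and FACS-sorted into low and high (top ~1%) gates on expression and reagent-binding fluorescence. Labels for polyreactivity follow the gate of origin.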
row,Sequence,polyreactivity (PSR sort gate)
1,QVQLVESGGGLVQAGGSLRLSCAASGRTLRRYAMGSYREAPGKERELVATISGRGGSTYYADSVMGRFTISRDNAKNTVYLQMNSLKPEYTAVYYCNRVTSRVSGRYSYDYWGQGTQVTVSS,high polyreactivity
2,QVQLVESGGGLVQAGGSLRLSCAASGRTLRRYAMGWYRQAPGKERELVAAISRSGSSTYADSVKGRFTISRDNAKNTVYFQMNSLKPEDTAVYYCNAVYGYSAHGYYYRYDYWGQGTQVTVSS,high polyreactivity
3,QVQLVESGGGLVQAGGSLRLSCAASGRTLRSYAMGWYRQAPGKERELVAAITRTGGDTYYADSVKGRFTISRDNANNTLYLQMNSLKPEDTAVYYCAAQRYRGYDYWGQGTQVTVSS,high polyreactivity
4,QVQLVESGGGLVQAGGSLRLSCAASGRTLRVNTMGWYRQAPGKERELVAAISSGGSRTNYADSVKGRFTISRDNAKNTVYLQMNSLKPEDTAVYYCNKYNRFVYSPPSVYWGQGTQVTVSS,high polyreactivity
5,QVQLVESGGGLVQAGGSLRLSCAASGRTLRWYAMGWYRQAPGKERELVAAIRWSGGSTYYADSVKGRFTISRDNAKNTVYLQMNSLKPEDTAVYYCAAYYVARDRRYPKAYSYEYWGQGTQVTVSS,high polyreactivity
6,QVQLVESGGGLVQAGGSLRLSCAASGRTLRYNTKGWYRQAPGKERELVADISWTGGSTYYADSVKGRFTISRDNAKNTVYLQMNSLKPEDTAVYYCAADEWWYPWYDYWGQGTQVTVSS,high polyreactivity
7,QVQLVESGGGLVQAGGSLRLSCAASGRTLRYNVMGLYRQAPGKERELVAVIDRSGVSTYYADSVKGRFTISRDNAKNTVYLQMNSLKPEDTAVYYCAAPRVVYRGDYWGQGTQVTVSW,high polyreactivity
8,QVQLVESGGGLVQAGGSLRLSCAASGRTLRYNVMGWYRHAPGKERELVAAISSGGSTYYADSVKGRFTISRDNAKNTVYLQMNSLKPEDTAVYYCAKRVSNWVTGGGYYYWGQGTQVTVSS,high polyreactivity
9,QVQLVESGGGLVQAGGSLRLSCAASGRTLRYYAMGWYRQAPGKERELVAAITKSGGSTYYADSVKGRFTISRDNAKNTVYLQMTSLKPEDTAVYYCNKVTYSRAQYIGGDGYYWGQGTQVTVSS,high polyreactivity
10,QVQLVESGGGLVQAGGSLRLSCAASGRTLSFYAMGWYRQAPGKERELVASISSGGRTYYADSVKGRFTISRDNAKNTVYLQMNSLKPEDTAVYYCAVGYRSRYRSRDDYWGQGTQVTVSS,high polyreactivity
11,QVQLVESGGGLVQAGGSLRLSCAASGRTLSIYAMGMYRQAPGKEMELVASISSSGGRTDYADSVKGRFTISRDNAKYTVYLQMNSLKPEDTAVYYCAADGGYYYPYRGYHKYYYWGQGTLVTVSS,low polyreactivity
12,QVQLVESGGGLVQAGGSLRLSCAASGRTLSRYAMGWYRQAPGKEREFVAGISASGGRTYYADSVKGRFTISRDNAKNTVYLQMNSLKPEDTAVYYCAAQLPWAGGKYDYWGQGTQVTVSS,high polyreactivity
13,QVQLVESGGGLVQAGGSLRLSCAASGRTLSTNGMGWYRQAPGKERELVATITRRGGRTYYADSVKGRFTISRDNAKNTVYLQMNSLKPEDTAVYYCATEQADRRVTYKYWGQGTQVTVSS,high polyreactivity
14,QVQLVESGGGLVQAGGSLRLSCAASGRTLSYYARGWYRQAPGKERELVASIRRRTGSTYYAESVKGRFTISRDNAKNSVYLQMNSLTPEDTAVYYCAADLIYYGEYDYWGQGTQVTVSS,high polyreactivity
15,QVQLVESGGGLVQAGGSLRLSCAASGRTLTKYVMGWYRQAPGKEREFVAAISSSGDSTYYADSVKGRFTISRDNAKNPVYLQMNSLKQEDTAVYYCAKYDRNTYCYWGQCTQVTVSS,low polyreactivity
16,QVQLVESGGGLVQAGGSLRLSCAASGRTLTSNAMGWYRQAPGKERELVASITGSSSNTYYADSVKGRFTISRDNAKNTVYLQMNSLKPEDTAVYYCAAEVGFPWWRLDEYWGQGTQVTVSS,low polyreactivity
17,QVQLVESGGGLVQAGGSLRLSCAASGRTLVKYAMGRYRPAPGKERELVAALTQRGGITYYADSVKGRFTISRDNAKNTVYLQMNSLKPEDTAVYYCAASLYSYRSPYTFYYWGQGTQVTVSS,high polyreactivity
18,QVQLVESGGGLVQAGGSLRLSCAASGRTLVRNVMGWYRQAPGKERELVAAISRSGGSTYYADSVKGRFTISRDNAKNTVYLQMNSLKPEDTAVYYCAAATKSNGAPIFDSWGQGTQVTVSS,high polyreactivity
19,QVQLVESGGGLVQAGGSLRLSCAASGRTLVVNDMGWYRQAPGKERELVADINWSGGRTYYADSVKGRFTISRDNAKNTVYLQMNSLKPEDTAVYYCAADLSWRQYYREYDYWGQGTEVTVSS,high polyreactivity
20,QVQLVESGGGLVQAGGSLRLSCAASGRTLVYYAMGWYRQAPGKERELVAAITSVGSTNYADSVKGRFTISRDNAKNTVYLQMNSLKPEDTAVYYCAADRTYRFYYTQGYEYWGQGTQVTVSS,low polyreactivity
21,QVQLVESGGGLVQAGGSLRLSCAASGRTLWWYAMAWYRQAPGKERELVAAIDYSDGNTYYADSVKGRFTISRDNAKNTVYLQMNSLKPEDTAVYYCAAEGYYNYGSYYWGQGTQVTVSS,high polyreactivity
22,QVQLVESGGGLVQAGGSLRLSCAASGRTLWYYTMGWYRQAPGKERELVADITRGTSTNYADSVKGRFTISRDNAKNTVYLQMNSLKPEDTAVYYCNRAHGRSRYSRDYDSWGQGTQVTVSS,low polyreactivity

row,Sequence,polyreactivity (PSR sort gate)
1,QVQLVESGGGLVQAGGSLRLSCAASGRTLYFNAMAWYRQEPGKERELVADISIGGSTYYADSVKGRFTISRDNAKNTVYLQMNSLKPEDTAVYYLATDYLGGGKRYYYWGQGTQVTVSS,high polyreactivity
2,QVQLVESGGGLVQAGGSLRLSCAASGRTLYFNAMGWYRQAPGKERELVADISIGGSTYYADSVKGRFTISRDNAKNTVYLQMNSLKPEDTAVYYCAANAHYYVSYAWYVDVDYWGQGTQVTVSS,high polyreactivity
3,QVQLVESGGGLVQAGGSLRLSCAASGRTLYGYAMGWYRQAPGKERELVASIRSGGSTNYADSVKGSFTISRDNAKNTVYFQMNSLKQEYTAVYYCAAEPYYSYGYYHAHGRDVGYWGQGTQVTVSS,low polyreactivity
4,QVQLVESGGGLVQAGGSLRLSCAASGRTLYKYAMGWYRQAPGKERELVATISSGGRTNYADSVKGRFTISRDNAKNPVYLQMNSLKPEDTAVYYCAADVVRYYYTYDYWGQGTQVTVSS,low polyreactivity
5,QVQLVESGGGLVQAGGSLRLSCAASGRTLYRNAMGWDRQAPGKERELVATITSGGSTYYADSVKGRFTISRDTAKNTVYLLMNSLKPEDTAVYYCNADWYWRVYWGQGTQVTVSS,high polyreactivity
6,QVQLVESGGGLVQAGGSLRLSCAASGRTMDFNVMGWYRQAPGKERELVAAITWSGGSTYYSDSVKGRFTISRDNAKNTVYLQMNSLKPVDTAVYYCAKDLWYWARRYDYWGQGTQVTVSS,high polyreactivity
7,QVQLVESGGGLVQAGGSLRLSCAASGRTNCEYTMGWYRKAPGKERELVAVITKSGGSTYYADSVKGRFTISRDNAKNTVYLQMNSLKPEDTAVYDCAARRYYYLNSRYGYWGQGTQVTVSS,high polyreactivity
8,QVQLVESGGGLVQAGGSLRLSCAASGRTRFYAMGWYRQPPGKEREMVAAISGSSGSTYYADSVKGRFTISRDNAKNTVYLQMNSLKPEDTAVYYCAADFWRFYYEYDYWGQGTQVTVSS,low polyreactivity
9,QVQLVESGGGLVQAGGSLRLSCAASGRTRHGYTMGWYRQAPGKERELVATISSIGGSTYYADSLKGRFTISRDNAKNTVYLQMNSLKPEDTAVYYSNRGRARVIFSGMDYWGQGTQVTVSS,low polyreactivity
10,QVQLVESGGGLVQAGGSLRLSCAASGRTSFHYAMGWYRQAPGKERELVAAINWNGGRTYYADSVKGRFTISRDNAKNTVYLQMNSLKPEDTAVYYCAARLSYLGGYDYWGQGTQVTVSS,high polyreactivity
11,QVQLVESGGGLVQAGGSLRLSCAASGRTSFYYGMGWYRQAPGKERELVAGINYGGGSTYYADSVKGRFTISRDNAKNTVYLQMNSLKPEDTAVYYCNAGDGPDEEYDYWGQGTQVTVSS,low polyreactivity
12,QVQLVESGGGLVQAGGSLRLSCAASGRTSGAYAMGWYRQAPGKERELVAAISIAGITYADSVKGRFTISRDNAKNTVYLQMNSLKPEDTAVYYCAAYYLFRPYAQYDYWGQGTQVTVSS,low polyreactivity
13,QVQLVESGGGLVQAGGSLRLSCAASGRTSGGYAMGWYRQAPGNERELVASITWSGDTTYYADSVTGRFTISRDNAKNTVYLQMNSLKPEDTAVYYCATIPGYVYYWQYKYDYWGQGTQVTVSS,low polyreactivity
14,QVQLVESGGGLVQAGGSLRLSCAASGRTSGINAMGWYRQAPGKERELVAAISSGGRTYYADSVKGRFTISRDNAKNTVYLQMNSLKPEDTAVYYCAAVIHWSLYRRMEYWGQGTQVTVSS,high polyreactivity
15,QVQLVESGGGLVQAGGSLRLSCAASGRTSGKNAMGSYRQATRKEREMVAAISSSGGSTYYADSVKGRFTISRDNAKNTVYLQMNSLKPEDTAVYYCAAKYFRKYSQIGPDMYYWGQGTQVTVSS,high polyreactivity
16,QVQLVESGGGLVQAGGSLRLSCAASGRTSIPYARGWYRQAPGKERELVAAISYSVGRTYYADSVKGRFTISRDNAKNTVYLQMNSLKPEDTAVYYCAAEYNGVVRDYDYWGQGTQVTVSS,low polyreactivity
17,QVQLVESGGGLVQAGGSLRLSCAASGRTSIYNTMGWYRQAPGKERELVAAINPSGSTNYADSVKGRFTISRDNAKNTVYLQMNSLKPEDTAVYYCAAVVKWWGQSRYDYWGQGTQVTVSS,high polyreactivity
18,QVQLVESGGGLVQAGGSLRLSCAASGRTSKYYAMGWYRQAPGKERELVAAITGTGGSTYYADSVKGRFTISRDNAKNTVYLQMNSLKPEDTAVYYCAALRKSYTYDSWGQGTQVTVSS,high polyreactivity
19,QVQLVESGGGLVQAGGSLRLSCAASGRTSLRYAMGWYRQAPGKERELVAAITSSGATTYYADSVKGRFTISRDNAKNTVYLQMNSLKPEDTAVYYCAAVYSAKRGSGGFGYWGQGTQVTVSS,high polyreactivity
20,QVQLVESGGGLVQAGGSLRLSCAASGRTSPAYAMGWYRQAPGKERELVAAISRSGGRTNYADSVKGRFTISRDNAKNTVYLQMNSLKPEDTAVYYCAVPYWYLGDNSGHDPYYYWGQGTQVTVSS,high polyreactivity
21,QVQLVESGGGLVQAGGSLRLSCAASGRTSRSNAMGWYRQAPGKERELVAAISSGGSTYADSVKGRFTISRDNAKNTVYLQMNSLKPEDTAVYYCAARYRTRYAGYNYWGQGTQVTVSS,high polyreactivity
